From US20200339690A1 (JOUNCE THERAPEUTICS, published 2020)

Columns and labels:
[1] = target: T1, human LILRB4 (human, UniProt Q8NHJ6 22-448); experiment: flow cytometry, LILRB4 CHOs
T1 construct: Over-expressed on CHO-s cells; also called hLILRB4

[2] = target: T2, human LILRA3 (human, UniProt Q8N6C8 24-439); experiment: flow cytometry, LILRA3 CHOs
T2 construct: Over-expressed on CHO-s cells; also called hLILRA3

[3] = target: T3, human LILRB2 expressed on cells (human, UniProt Q8N423 22-597); experiment: blocking of HLA-A2 tetramer on LILRB2 CHOs, flow cytometry, mAb 10 ug/mL
T3 construct: CHO-s cells over-expressing full-length human LILRB2, or primary human macrophages and dendritic cells; also called hLILRB2-CHO-s; hLILRB2+ CHO-s
T3 sequence (Q8N423 other isoform, or with tags, fused parts or gaps limits assumed): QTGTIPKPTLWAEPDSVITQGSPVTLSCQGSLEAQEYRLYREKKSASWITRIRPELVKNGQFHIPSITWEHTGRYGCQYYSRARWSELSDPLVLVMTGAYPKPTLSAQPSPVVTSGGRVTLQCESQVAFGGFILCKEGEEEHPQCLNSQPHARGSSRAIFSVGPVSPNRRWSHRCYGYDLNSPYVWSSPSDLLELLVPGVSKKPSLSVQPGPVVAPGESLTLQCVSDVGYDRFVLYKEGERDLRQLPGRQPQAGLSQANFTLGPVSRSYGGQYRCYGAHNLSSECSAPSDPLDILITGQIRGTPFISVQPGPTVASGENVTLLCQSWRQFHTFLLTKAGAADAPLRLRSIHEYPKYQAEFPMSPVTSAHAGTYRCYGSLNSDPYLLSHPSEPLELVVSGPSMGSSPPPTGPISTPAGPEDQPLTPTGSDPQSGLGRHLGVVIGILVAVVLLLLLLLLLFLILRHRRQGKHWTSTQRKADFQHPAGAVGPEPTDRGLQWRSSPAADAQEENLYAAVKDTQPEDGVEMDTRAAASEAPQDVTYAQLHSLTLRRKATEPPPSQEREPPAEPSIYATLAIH
Procedure: (§1) In the secondary screen, 1×10⁵ CHO-s cells over-expressing human LILRB2 were plated in 96-well round-bottom tissue culture-treated plate and washed twice with 1×DPBS (Gibco) and incubated with 10 μg/mL primary antibody (anti-LILRB2 mAbs or control) prepared in 50 μL FACS buffer (1×DPBS containing 2% HI-FBS (Sigma)+0.05% Sodium Azide). After incubation with mAbs for 30 minutes at 4° C., cells were washed twice in FACS buffer and then resuspended in 50 μL of FACS buffer containing 5 μg/mL APC-conjugated HLA-A2 or HLA-G tetramer (Fred Hutch). Cells were incubated protected from light for 30-60 minutes at 4° C. After incubation with tetramer, cells were washed in FACS buffer and re-suspended in fix buffer (1.5% paraformaldehyde diluted in 1×DPBS). Samples were analyzed using the Celesta flow cytometer analyzer (BD Biosciences). Data represent percent tetramer blocked by mAbs relative to tetramer alone, calculated according to the following equation: […]

[4] = target: T4, human LILRB3 (human, UniProt O75022 24-631); experiment: flow cytometry, LILRB3 CHOs
T4 construct: Over-expressed on CHO-s cells; also called hLILRB3

[5] = target: T3, human LILRB2 expressed on cells; experiment: blocking of HLA-G tetramer on LILRB2 CHOs, flow cytometry, mAb 10 ug/mL
Procedure: as §1

[6] = target: T5, human LILRB1 (human, UniProt Q8NHL6 24-650); experiment: flow cytometry, LILRB1 CHOs
T5 construct: Over-expressed on CHO-s cells; also called hLILRB1
T5 sequence (Q8NHL6 24-650 limits assumed): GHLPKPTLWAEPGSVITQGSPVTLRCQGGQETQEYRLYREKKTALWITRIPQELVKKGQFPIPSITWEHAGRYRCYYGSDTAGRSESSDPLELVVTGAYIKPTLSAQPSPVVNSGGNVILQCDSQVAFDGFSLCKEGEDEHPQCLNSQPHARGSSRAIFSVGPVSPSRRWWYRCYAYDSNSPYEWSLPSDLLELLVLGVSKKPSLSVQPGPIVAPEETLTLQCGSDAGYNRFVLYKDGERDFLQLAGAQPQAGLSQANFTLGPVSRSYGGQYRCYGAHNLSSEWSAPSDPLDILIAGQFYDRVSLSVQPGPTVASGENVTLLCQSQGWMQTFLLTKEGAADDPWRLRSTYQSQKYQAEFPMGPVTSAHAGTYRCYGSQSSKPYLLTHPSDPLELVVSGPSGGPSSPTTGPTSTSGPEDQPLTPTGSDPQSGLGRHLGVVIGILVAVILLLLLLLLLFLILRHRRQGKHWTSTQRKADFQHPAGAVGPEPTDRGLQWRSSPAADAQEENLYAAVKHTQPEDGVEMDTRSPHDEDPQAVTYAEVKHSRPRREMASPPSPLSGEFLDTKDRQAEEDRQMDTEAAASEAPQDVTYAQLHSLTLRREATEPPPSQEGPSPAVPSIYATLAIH

[7] = target: T6, human LILRA6 (human, UniProt Q6PI73 24-481); experiment: flow cytometry, LILRA6 CHOs
T6 construct: Over-expressed on CHO-s cells; also called hLILRA6
T6 sequence (Q6PI73 24-481 limits assumed): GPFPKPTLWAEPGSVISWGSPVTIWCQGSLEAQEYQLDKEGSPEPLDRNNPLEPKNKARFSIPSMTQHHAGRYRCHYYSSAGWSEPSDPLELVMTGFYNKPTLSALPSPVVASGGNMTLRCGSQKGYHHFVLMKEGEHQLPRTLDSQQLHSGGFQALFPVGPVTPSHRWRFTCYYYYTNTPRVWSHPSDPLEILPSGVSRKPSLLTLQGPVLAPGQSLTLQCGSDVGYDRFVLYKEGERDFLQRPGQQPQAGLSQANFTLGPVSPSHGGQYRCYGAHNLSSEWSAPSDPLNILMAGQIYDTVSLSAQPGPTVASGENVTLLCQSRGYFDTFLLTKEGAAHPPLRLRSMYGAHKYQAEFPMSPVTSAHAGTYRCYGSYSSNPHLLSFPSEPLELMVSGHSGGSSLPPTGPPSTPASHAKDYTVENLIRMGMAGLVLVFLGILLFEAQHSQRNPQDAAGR

[8] = target: T7, human LILRA1 (human, UniProt O75019 17-489); experiment: flow cytometry, LILRA1 CHOs
T7 construct: Over-expressed on CHO-s cells; also called hLILRA1
T7 sequence (O75019 17-489 limits assumed): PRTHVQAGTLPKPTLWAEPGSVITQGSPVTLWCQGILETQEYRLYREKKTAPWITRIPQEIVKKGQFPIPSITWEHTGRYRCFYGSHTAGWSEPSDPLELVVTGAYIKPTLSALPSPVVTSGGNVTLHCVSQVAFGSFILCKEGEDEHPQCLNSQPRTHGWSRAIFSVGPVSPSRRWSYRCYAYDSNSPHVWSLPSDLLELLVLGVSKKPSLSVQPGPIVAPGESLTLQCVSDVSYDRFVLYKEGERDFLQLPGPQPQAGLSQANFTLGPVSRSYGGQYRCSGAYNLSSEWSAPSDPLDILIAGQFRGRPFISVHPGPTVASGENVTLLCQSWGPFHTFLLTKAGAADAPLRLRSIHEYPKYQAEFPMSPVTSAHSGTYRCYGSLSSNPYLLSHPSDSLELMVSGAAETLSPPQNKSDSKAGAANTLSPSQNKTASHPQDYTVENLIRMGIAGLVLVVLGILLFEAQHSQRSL

[9] = target: T8, human LILRA2 (human, UniProt Q8N149 24-483); experiment: flow cytometry, LILRA2 CHOs
T8 construct: Over-expressed on CHO-s cells; also called hLILRA2
T8 sequence (Q8N149 24-483 S135L limits assumed): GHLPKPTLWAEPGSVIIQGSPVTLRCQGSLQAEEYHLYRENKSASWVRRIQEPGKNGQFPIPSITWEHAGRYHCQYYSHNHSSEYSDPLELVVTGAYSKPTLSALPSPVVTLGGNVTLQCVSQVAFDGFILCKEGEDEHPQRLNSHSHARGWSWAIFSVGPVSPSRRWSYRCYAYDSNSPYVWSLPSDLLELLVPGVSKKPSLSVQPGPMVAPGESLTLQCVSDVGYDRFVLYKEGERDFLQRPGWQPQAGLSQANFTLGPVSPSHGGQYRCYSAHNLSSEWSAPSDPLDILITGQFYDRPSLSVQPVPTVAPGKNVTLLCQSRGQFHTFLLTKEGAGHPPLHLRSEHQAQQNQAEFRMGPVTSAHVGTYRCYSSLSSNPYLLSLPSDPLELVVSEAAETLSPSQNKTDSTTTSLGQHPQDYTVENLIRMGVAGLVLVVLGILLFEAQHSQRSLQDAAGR

[10] = target: T3, human LILRB2 expressed on cells; experiment: flow cytometry, LILRB2 CHOs
[11] = target: T9, human LILRB5 (human, UniProt O75023 24-590); experiment: flow cytometry, LILRB5 CHOs
T9 construct: Over-expressed on CHO-s cells; also called hLILRB5
T9 sequence (O75023 24-590 P542R limits assumed): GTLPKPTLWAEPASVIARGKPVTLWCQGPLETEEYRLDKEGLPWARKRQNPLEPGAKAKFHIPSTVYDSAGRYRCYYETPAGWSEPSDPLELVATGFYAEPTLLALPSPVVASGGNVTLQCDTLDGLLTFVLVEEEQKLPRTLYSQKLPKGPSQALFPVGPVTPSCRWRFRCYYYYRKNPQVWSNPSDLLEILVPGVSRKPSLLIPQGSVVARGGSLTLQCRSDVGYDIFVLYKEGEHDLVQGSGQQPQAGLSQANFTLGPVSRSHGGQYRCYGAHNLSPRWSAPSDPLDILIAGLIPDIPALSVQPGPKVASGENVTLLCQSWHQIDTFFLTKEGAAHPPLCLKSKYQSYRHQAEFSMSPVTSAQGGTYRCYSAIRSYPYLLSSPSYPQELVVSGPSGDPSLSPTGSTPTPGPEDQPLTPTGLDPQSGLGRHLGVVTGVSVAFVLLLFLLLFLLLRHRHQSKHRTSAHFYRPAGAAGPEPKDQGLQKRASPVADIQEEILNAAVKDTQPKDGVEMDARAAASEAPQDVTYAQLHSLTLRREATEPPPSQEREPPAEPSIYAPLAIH

[12] = target: T10, human LILRA5 (human, UniProt A6NI73 42-299); experiment: flow cytometry, LILRA5 CHOs
T10 construct: Over-expressed on CHO-s cells; also called hLILRA5
T10 sequence (A6NI73 42-299 limits assumed): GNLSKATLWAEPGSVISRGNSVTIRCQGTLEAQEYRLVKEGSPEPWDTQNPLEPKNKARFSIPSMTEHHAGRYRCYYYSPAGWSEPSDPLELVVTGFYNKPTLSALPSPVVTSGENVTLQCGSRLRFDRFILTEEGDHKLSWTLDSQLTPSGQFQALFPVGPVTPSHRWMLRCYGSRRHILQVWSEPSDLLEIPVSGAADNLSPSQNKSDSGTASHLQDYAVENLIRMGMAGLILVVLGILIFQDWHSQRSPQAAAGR

[13] = target: T3, human LILRB2 expressed on cells; experiment: cell-based or functional assay

T2 sequence (Q8N6C8 24-439 limits assumed): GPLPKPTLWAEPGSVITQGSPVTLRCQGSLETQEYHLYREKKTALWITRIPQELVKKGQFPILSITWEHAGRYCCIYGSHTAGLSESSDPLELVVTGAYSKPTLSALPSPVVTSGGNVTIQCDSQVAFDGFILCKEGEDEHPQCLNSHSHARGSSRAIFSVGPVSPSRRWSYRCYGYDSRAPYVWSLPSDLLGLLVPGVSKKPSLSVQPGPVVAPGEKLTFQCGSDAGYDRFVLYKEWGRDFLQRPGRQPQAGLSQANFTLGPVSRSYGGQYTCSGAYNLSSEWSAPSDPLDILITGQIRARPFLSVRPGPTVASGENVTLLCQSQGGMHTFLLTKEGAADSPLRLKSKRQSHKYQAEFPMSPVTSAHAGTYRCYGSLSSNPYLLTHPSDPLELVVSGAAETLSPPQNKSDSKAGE

B1: J-04 (antibody, human IgG4 S228P, kappa, V domains shown)
VH: QVQLQQSGAELVRPGASVTLSCKASGYTFADYEIHWVKQTPVHGLEWIGAIDPETGGTAYNQKFKGKAILTADKSSSTAYMELRSLTSEDSAVYYCTRYYDYDDAMDYWGQGTSVTVSS
VL: QIVLTQSPAIMSASPGEKVTMTCSASSSVSFMHWYQQKSGTSPKRWIYGTSKLASGVPARFSGSGSGTSYSLTISSMEAEDAATYYCQQWNGNPFTFGSGTKLETKR
notes: Human IgG4 chimera of murine origin
binding (fold over iso) [1]: 0.83 fold over iso | binding result [1]: no binding | binding (fold over iso) [2]: 0.93 fold over iso | binding result [2]: no binding | HLA-A2:LILRB2 CHOs blocking (% blocked) [3]: -319 % blocked | binding (fold over iso) [4]: 0.9 fold over iso | binding result [4]: no binding | HLA-G:LILRB2 CHOs blocking (% blocked) [5]: -255 % blocked | binding (fold over iso) [6]: 0.95 fold over iso | binding result [6]: no binding | binding (fold over iso) [7]: 1.3 fold over iso | binding result [7]: no binding | binding (fold over iso) [8]: 0.88 fold over iso | binding result [8]: no binding | binding (fold over iso) [9]: 1.62 fold over iso | binding result [9]: no binding | binding (fold over iso) [10]: 33.8 fold over iso | binding (fold over iso) [11]: 1.08 fold over iso | binding result [11]: no binding | binding (fold over iso) [12]: 0.74 fold over iso | binding result [12]: no binding | CCL2 production (fold over LPS alone) [13]: 1 fold over LPS alone | IL-6 production (fold over LPS alone) [13]: 1.36 fold over LPS alone | IL-10 production (fold over LPS alone) [13]: 0.95 fold over LPS alone | TNFa production (fold over LPS alone) [13]: 1.18 fold over LPS alone

B2: J-03 (antibody, human IgG4 S228P, kappa, V domains shown)
VH: QVQLQQSGAELVRPGASVTLSCKASGYKFTDYEMHWVKQTPVHGLEWIGAIDPETNGTAYNKKFKGKAILTADKSSSTAYMELRSLTSEDSAVYYCTRGDYDFSAWFAYWGQGTLVTVSA
VL: DIVLTQSPASLAVSLGQRATISCRASESVDNYDISFMHWYQQKPGQPPKLLIYRASNLESGIPARFSGSGSRTDFTLTINPVETDDVATYYCQQSNKDPRTFGGGTKLEIKR
notes: as for B1
binding (fold over iso) [1]: 1.02 fold over iso | binding result [1]: no binding | binding (fold over iso) [2]: 1.05 fold over iso | binding result [2]: no binding | HLA-A2:LILRB2 CHOs blocking (% blocked) [3]: -208 % blocked | binding (fold over iso) [4]: 0.97 fold over iso | binding result [4]: no binding | HLA-G:LILRB2 CHOs blocking (% blocked) [5]: -156 % blocked | binding (fold over iso) [6]: 0.94 fold over iso | binding result [6]: no binding | binding (fold over iso) [7]: 1.23 fold over iso | binding result [7]: no binding | binding (fold over iso) [8]: 0.89 fold over iso | binding result [8]: no binding | binding (fold over iso) [9]: 1.58 fold over iso | binding result [9]: no binding | binding (fold over iso) [10]: 30.1 fold over iso | binding (fold over iso) [11]: 1 fold over iso | binding result [11]: no binding | binding (fold over iso) [12]: 0.96 fold over iso | binding result [12]: no binding | CCL2 production (fold over LPS alone) [13]: 0.95 fold over LPS alone | IL-6 production (fold over LPS alone) [13]: 1.1 fold over LPS alone | IL-10 production (fold over LPS alone) [13]: 0.97 fold over LPS alone | TNFa production (fold over LPS alone) [13]: 1.27 fold over LPS alone
